Assay: soluble on expression in E. coli; label from the status in PepcDB or PDB records

| Sequence | soluble on expression in E. coli |
| --- | --- |
| MFSPLGQFKHIVCPFLRTGRKCQSRNCFFSHDFQNSTKISPPYSENVEGYPKVKIEKSLPYKYDNCKLSICVPIVTTCIPYHSVENLNFNIRQNISTTLNLEKTNDSIKETKNENFRMDVLETYKCKQLNHQTTHLPTNTVLKKRSLFNDAISIVPNKKKQLVSAISTNSDSQGASSNIIPTPKYDSNSPAGHELRKRMTHLLYESYKDLGYSNAESSMLALLDEKNICETANSKMIYSSSCKSKILSLKKAPKKNEIQGSTPDEKLESLVHSEEELILWGYNIGDVAPVNPPDELRECDRCGTRFADPRGPCTYHWGKLFREKQGGEKIRTYTCCGVKEGDSSGCIIEDNHVFKYRHLPYLASVHPFSYLPDSTNSKQLSHCALDCELCYTTNGMELARLTVVAKESIIMDVFIKPKGKILSLNTRFSGIHDAKELESGITMDQMYIKIKELGMNKNTILIGHGLENDLNAMRLIHKRVIDTALLFTHARGPPFRYSLKYLTKKYLGTTIQTSTHDSEEDAVSALQLVFYKTKSNESQN | soluble |
| MFTGFGAASFSAPAKAAAQTNTLSENTNQSAAELVKNLYNTAYKGEMPQQAQGLTINKSTKGDVHAAFGEPERPVGGDNRFDLYHWNMGQPGYGFSYHKDMTISEIRYFGTGVERQLNLGGVTPEVLQKQLGPVNRVLTVPFTDEIDYVYDTGRYELHFVIGTDQTADHVNLKAKLEHHHHHH | soluble |
| MFYKFLLFDLDHTLLDFDAAEDVALTQLLKEEGVADIQAYKDYYVPMNKALWKDLELKKISKQELVNTRFSRLFAHFGQEKDGSFLAQRYQFYLAQQGQTLSGAHDLLDSLIERDYNLYAATNGITAIQTGRLAQSGLAPYFNQVFISEQLQTQKPDALFYEKIGQQIAGFSKEKTLMIGDSLTADIQGGNNAGIDTIWYNPHHLENHTQAQPTYEVYSYQDLLDCLDKNILEKITF | not soluble |
| MGAAKASLGRIFPESSILFLCDMQEKLRDRILYFPQIVSMAARMLKVAQMLEIPVLLTEHYPQGLGPTVPELGAQGLRTMSKTSFSMVPPLQQELDKLPQLQSVLLRGIETQGCILHTALDLLDRGLQVHVAVDACSSQSEMNRLVALARMQQSGVFLSTSEVLILQLVKDAAHPQFKEIQKILKEPVTDIGLLGFFQGKKNSLLPNSRT | not soluble |
| MGAIKVEIKSGALLISPSEFKERYLPTLQDMPVLAFVRNIEAPKSWYSYLISNIEDQKSSIFPTNLPRILEISRRYFSSVKNGIVVIDALEYLTIYNGFEAIAKFLATLRDFAILDNGTVIIITEKKAWKDREWALLTSLLGKLEHHHHHH | not soluble |
| MGARVTRALRNFNVEKRAEREISKRKPSMAPKHPSTRDLLQEHRSQYPEIEEVVSKKDNKLLSLLRDVYVDSKDPVPALPVKVEPRQEPKEFRLPIGNHFDKNITDIPKGKITVVEALTLLNNHKLSPETWTAEKIAQEYYLELKDVNSLLKYFVTFEVKILPPEDRKAIQSK | soluble |
| MGCLLFLLLWALLQAWGSAEVPQRLFPLRCLQISSFANSSWTRTDGLAWLGELQTHSWSNDSDTVRSLKPWSQGTFSDQQWETLQHIFRVYRSSFTRDVKEFAKMLRLSYPLELQVSAGCEVHPGNASNNFFHVAFQGKDILSFQGTSWEPTQEAPLWVNLAIQVLNQDKWTRETVQWLLNGTCPQFVSGLLESGKSELKKQVKPKAWLSRGPSPGPGRLLLVCHVSGFYPKPVWVKWMRGEQEQQGTQPGDILPNADETWYLRATLDVVAGEAAGLSCRVKHSSLEGQDIVL | soluble |
| MGDASTQLSSYVKQVQTGHKPSTKEIVRFSKLFEDQLALEHLDRPQLVALCKLLELQTFGTNNLLRFQLLMKLKSIKADDEIIAKEGVTALSVSELQAACRARGMRSLGLTEEQLRQQLTEWQDLHLKENVPPSLLLLSRTFYLIDVKPKPIEIPLSGEAPKTDILVELPTFTESKENMVDLAPQLKGTKDEDFIQPPPVTSSPITPSTPISLPKGPITSSEEPTLQAKSQMTAQNSKASSKGA | soluble |
